From patent US20250230247A1

Key:
[1] = biological target: human Dectin-1 expressed on cells (isoform not given) (human) (UniProt Q9BXN2)
[2] = biological target: human Dectin-1 expressed on cells (isoform not given) (human) (UniProt Q9BXN2); experiment: flow cytometry on human monocytes
[3] = biological target: T1, human Dectin-1 isoform A (human) (UniProt Q9BXN2); experiment: flow cytometry on HEK-Blue hDectin-1a cells
T1 sequence: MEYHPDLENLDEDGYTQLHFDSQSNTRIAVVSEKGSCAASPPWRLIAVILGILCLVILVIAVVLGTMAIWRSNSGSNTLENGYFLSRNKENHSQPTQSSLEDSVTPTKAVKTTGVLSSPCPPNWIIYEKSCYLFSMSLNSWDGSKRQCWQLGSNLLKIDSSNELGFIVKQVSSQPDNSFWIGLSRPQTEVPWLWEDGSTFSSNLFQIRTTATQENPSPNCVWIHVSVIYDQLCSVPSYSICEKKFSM

[4] = biological target: T1, human Dectin-1 isoform A (human); experiment: flow cytometry on HEK293F hDectin-1a FL cells
[5] = biological target: human Dectin-1 expressed on cells (isoform not given) (human) (UniProt Q9BXN2); experiment: flow cytometry on human monocytes (summary table)
[6] = biological target: T1, human Dectin-1 isoform A (human); experiment: flow cytometry on HEK-Blue hDectin-1a cells (summary table)
[7] = biological target: T1, human Dectin-1 isoform A (human); experiment: flow cytometry on HEK293F hDectin-1a FL cells (summary table)

- IFNg secretion in PBMC, immobilized antibody (fold change to isotype) [1]: 1.6
- IL6 secretion in PBMC, immobilized antibody (fold change to isotype) [1]: 2.6
- TNFa secretion in PBMC, immobilized antibody (fold change to isotype) [1]: 3
- EC50 [2]: 0.6 nM
- EC50 [3]: 1.2 nM
- EC50 [4]: 1.4 nM
- EC50 [5]: 0.6 nM
- EC50 [6]: 1.2 nM
- EC50 [7]: 1.4 nM
B1: commercial anti-Dectin-1 antibody 15E2 (antibody, from a related filing, V domains shown)
VH: QWQLQQSGAELARPGASWKMSCKASGYTFTTYTMHWWKQRPGQGLEWIGYINPSSGYTNYNQKFKDKATLTADKSSSTASMQLSSLTSEDSAWYYCARERAVLVPYAMDYWGQGTSVTVSS
VL: QIVLTQSPAVMSASPGEKWTITCTASSSLSYMHWFQQKPGTSPKLWLYSTSILASGVPTRFSGSGSGTSYSLTISRMEAEDAATYYCQQRSSSPFTFGSGTKLEIK
